# From the MegaScale stability set (Tsuboyama et al. 2023)
# B1: EEHEE_rd4_0647 (parent)
# chain: MQVTWGNVTVTFSNPEEAKKYAEKVARKLGGQVELHNGQFRIK
# Variants of: B1
# Experiment: folding stability dG (cDNA display proteolysis); higher = more stable
# Conditions: PBS, room temperature
row,Variant,folding stability dG [kcal/mol]
1,MQVTWGNVTVTFSNPEEAKKYAEKYARKLGGQVELHNGQFRIK [V25Y],1.48
2,MQVTWGNVTVTFSNPEEAKKYAEKVCRKLGGQVELHNGQFRIK [A26C],2.08
3,MQVTWGNVTVTFSNPEEAKKYAEKVDRKLGGQVELHNGQFRIK [A26D],0.03
4,MQVTWGNVTVTFSNPEEAKKYAEKVERKLGGQVELHNGQFRIK [A26E],0.315
5,MQVTWGNVTVTFSNPEEAKKYAEKVFRKLGGQVELHNGQFRIK [A26F],1
6,MQVTWGNVTVTFSNPEEAKKYAEKVGRKLGGQVELHNGQFRIK [A26G],1.38
7,MQVTWGNVTVTFSNPEEAKKYAEKVHRKLGGQVELHNGQFRIK [A26H],0.769
8,MQVTWGNVTVTFSNPEEAKKYAEKVIRKLGGQVELHNGQFRIK [A26I],1.35
9,MQVTWGNVTVTFSNPEEAKKYAEKVKRKLGGQVELHNGQFRIK [A26K],0.937
10,MQVTWGNVTVTFSNPEEAKKYAEKVLRKLGGQVELHNGQFRIK [A26L],1.34
11,MQVTWGNVTVTFSNPEEAKKYAEKVMRKLGGQVELHNGQFRIK [A26M],1.2
12,MQVTWGNVTVTFSNPEEAKKYAEKVNRKLGGQVELHNGQFRIK [A26N],0.851
13,MQVTWGNVTVTFSNPEEAKKYAEKVPRKLGGQVELHNGQFRIK [A26P],-0.236
14,MQVTWGNVTVTFSNPEEAKKYAEKVQRKLGGQVELHNGQFRIK [A26Q],1.06
15,MQVTWGNVTVTFSNPEEAKKYAEKVRRKLGGQVELHNGQFRIK [A26R],1.38
16,MQVTWGNVTVTFSNPEEAKKYAEKVSRKLGGQVELHNGQFRIK [A26S],1.71
17,MQVTWGNVTVTFSNPEEAKKYAEKVTRKLGGQVELHNGQFRIK [A26T],0.93
18,MQVTWGNVTVTFSNPEEAKKYAEKVVRKLGGQVELHNGQFRIK [A26V],1.66
19,MQVTWGNVTVTFSNPEEAKKYAEKVWRKLGGQVELHNGQFRIK [A26W],1.17
20,MQVTWGNVTVTFSNPEEAKKYAEKVYRKLGGQVELHNGQFRIK [A26Y],0.807
21,MQVTWGNVTVTFSNPEEAKKYAEKVAAKLGGQVELHNGQFRIK [R27A],2.78
22,MQVTWGNVTVTFSNPEEAKKYAEKVACKLGGQVELHNGQFRIK [R27C],3.21
23,MQVTWGNVTVTFSNPEEAKKYAEKVADKLGGQVELHNGQFRIK [R27D],2.18
24,MQVTWGNVTVTFSNPEEAKKYAEKVAEKLGGQVELHNGQFRIK [R27E],2.61

row,Variant,folding stability dG [kcal/mol]
1,MQVTWGNVTVTFSNPEEAKKYAEKVAFKLGGQVELHNGQFRIK [R27F],2.45
2,MQVTWGNVTVTFSNPEEAKKYAEKVAGKLGGQVELHNGQFRIK [R27G],2.13
3,MQVTWGNVTVTFSNPEEAKKYAEKVAHKLGGQVELHNGQFRIK [R27H],2.51
4,MQVTWGNVTVTFSNPEEAKKYAEKVAIKLGGQVELHNGQFRIK [R27I],2.52
5,MQVTWGNVTVTFSNPEEAKKYAEKVAKKLGGQVELHNGQFRIK [R27K],2.88
6,MQVTWGNVTVTFSNPEEAKKYAEKVALKLGGQVELHNGQFRIK [R27L],2.75
7,MQVTWGNVTVTFSNPEEAKKYAEKVAMKLGGQVELHNGQFRIK [R27M],2.59
8,MQVTWGNVTVTFSNPEEAKKYAEKVANKLGGQVELHNGQFRIK [R27N],2.37
9,MQVTWGNVTVTFSNPEEAKKYAEKVAPKLGGQVELHNGQFRIK [R27P],0.58
10,MQVTWGNVTVTFSNPEEAKKYAEKVAQKLGGQVELHNGQFRIK [R27Q],2.64
11,MQVTWGNVTVTFSNPEEAKKYAEKVASKLGGQVELHNGQFRIK [R27S],2.4
12,MQVTWGNVTVTFSNPEEAKKYAEKVATKLGGQVELHNGQFRIK [R27T],2.31
13,MQVTWGNVTVTFSNPEEAKKYAEKVAVKLGGQVELHNGQFRIK [R27V],2.36
14,MQVTWGNVTVTFSNPEEAKKYAEKVAWKLGGQVELHNGQFRIK [R27W],2.3
15,MQVTWGNVTVTFSNPEEAKKYAEKVAYKLGGQVELHNGQFRIK [R27Y],2.41
16,MQVTWGNVTVTFSNPEEAKKYAEKVARALGGQVELHNGQFRIK [K28A],3.04
17,MQVTWGNVTVTFSNPEEAKKYAEKVARCLGGQVELHNGQFRIK [K28C],3.7
18,MQVTWGNVTVTFSNPEEAKKYAEKVARDLGGQVELHNGQFRIK [K28D],2.47
19,MQVTWGNVTVTFSNPEEAKKYAEKVARELGGQVELHNGQFRIK [K28E],2.72
20,MQVTWGNVTVTFSNPEEAKKYAEKVARFLGGQVELHNGQFRIK [K28F],2.97
21,MQVTWGNVTVTFSNPEEAKKYAEKVARGLGGQVELHNGQFRIK [K28G],2.01
22,MQVTWGNVTVTFSNPEEAKKYAEKVARHLGGQVELHNGQFRIK [K28H],2.9
23,MQVTWGNVTVTFSNPEEAKKYAEKVARILGGQVELHNGQFRIK [K28I],3.18
24,MQVTWGNVTVTFSNPEEAKKYAEKVARLLGGQVELHNGQFRIK [K28L],3.15

row,Variant,folding stability dG [kcal/mol]
1,MQVTWGNVTVTFSNPEEAKKYAEKVARMLGGQVELHNGQFRIK [K28M],3.09
2,MQVTWGNVTVTFSNPEEAKKYAEKVARNLGGQVELHNGQFRIK [K28N],2.29
3,MQVTWGNVTVTFSNPEEAKKYAEKVARPLGGQVELHNGQFRIK [K28P],0.676
4,MQVTWGNVTVTFSNPEEAKKYAEKVARQLGGQVELHNGQFRIK [K28Q],2.79
5,MQVTWGNVTVTFSNPEEAKKYAEKVARRLGGQVELHNGQFRIK [K28R],2.98
6,MQVTWGNVTVTFSNPEEAKKYAEKVARSLGGQVELHNGQFRIK [K28S],2.51
7,MQVTWGNVTVTFSNPEEAKKYAEKVARTLGGQVELHNGQFRIK [K28T],2.54
8,MQVTWGNVTVTFSNPEEAKKYAEKVARVLGGQVELHNGQFRIK [K28V],2.87
9,MQVTWGNVTVTFSNPEEAKKYAEKVARWLGGQVELHNGQFRIK [K28W],3.23
10,MQVTWGNVTVTFSNPEEAKKYAEKVARYLGGQVELHNGQFRIK [K28Y],2.97
11,MQVTWGNVTVTFSNPEEAKKYAEKVARKAGGQVELHNGQFRIK [L29A],1.76
12,MQVTWGNVTVTFSNPEEAKKYAEKVARKCGGQVELHNGQFRIK [L29C],2.92
13,MQVTWGNVTVTFSNPEEAKKYAEKVARKDGGQVELHNGQFRIK [L29D],0.761
14,MQVTWGNVTVTFSNPEEAKKYAEKVARKEGGQVELHNGQFRIK [L29E],1.33
15,MQVTWGNVTVTFSNPEEAKKYAEKVARKFGGQVELHNGQFRIK [L29F],2.66
16,MQVTWGNVTVTFSNPEEAKKYAEKVARKGGGQVELHNGQFRIK [L29G],1.17
17,MQVTWGNVTVTFSNPEEAKKYAEKVARKHGGQVELHNGQFRIK [L29H],2.06
18,MQVTWGNVTVTFSNPEEAKKYAEKVARKIGGQVELHNGQFRIK [L29I],2.96
19,MQVTWGNVTVTFSNPEEAKKYAEKVARKKGGQVELHNGQFRIK [L29K],1.36
20,MQVTWGNVTVTFSNPEEAKKYAEKVARKMGGQVELHNGQFRIK [L29M],2.51
21,MQVTWGNVTVTFSNPEEAKKYAEKVARKNGGQVELHNGQFRIK [L29N],1.6
22,MQVTWGNVTVTFSNPEEAKKYAEKVARKPGGQVELHNGQFRIK [L29P],0.143
23,MQVTWGNVTVTFSNPEEAKKYAEKVARKQGGQVELHNGQFRIK [L29Q],1.58
24,MQVTWGNVTVTFSNPEEAKKYAEKVARKRGGQVELHNGQFRIK [L29R],1.62

row,Variant,folding stability dG [kcal/mol]
1,MQVTWGNVTVTFSNPEEAKKYAEKVARKSGGQVELHNGQFRIK [L29S],2.02
2,MQVTWGNVTVTFSNPEEAKKYAEKVARKTGGQVELHNGQFRIK [L29T],2.65
3,MQVTWGNVTVTFSNPEEAKKYAEKVARKVGGQVELHNGQFRIK [L29V],2.77
4,MQVTWGNVTVTFSNPEEAKKYAEKVARKWGGQVELHNGQFRIK [L29W],2.5
5,MQVTWGNVTVTFSNPEEAKKYAEKVARKYGGQVELHNGQFRIK [L29Y],2.63
6,MQVTWGNVTVTFSNPEEAKKYAEKVARKLAGQVELHNGQFRIK [G30A],1.88
7,MQVTWGNVTVTFSNPEEAKKYAEKVARKLCGQVELHNGQFRIK [G30C],3.02
8,MQVTWGNVTVTFSNPEEAKKYAEKVARKLDGQVELHNGQFRIK [G30D],1.91
9,MQVTWGNVTVTFSNPEEAKKYAEKVARKLEGQVELHNGQFRIK [G30E],1.59
10,MQVTWGNVTVTFSNPEEAKKYAEKVARKLFGQVELHNGQFRIK [G30F],1.9
11,MQVTWGNVTVTFSNPEEAKKYAEKVARKLHGQVELHNGQFRIK [G30H],2.53
12,MQVTWGNVTVTFSNPEEAKKYAEKVARKLIGQVELHNGQFRIK [G30I],1.34
13,MQVTWGNVTVTFSNPEEAKKYAEKVARKLKGQVELHNGQFRIK [G30K],2.4
14,MQVTWGNVTVTFSNPEEAKKYAEKVARKLLGQVELHNGQFRIK [G30L],1.85
15,MQVTWGNVTVTFSNPEEAKKYAEKVARKLMGQVELHNGQFRIK [G30M],2.05
16,MQVTWGNVTVTFSNPEEAKKYAEKVARKLNGQVELHNGQFRIK [G30N],2.63
17,MQVTWGNVTVTFSNPEEAKKYAEKVARKLPGQVELHNGQFRIK [G30P],1.04
18,MQVTWGNVTVTFSNPEEAKKYAEKVARKLQGQVELHNGQFRIK [G30Q],2.12
19,MQVTWGNVTVTFSNPEEAKKYAEKVARKLRGQVELHNGQFRIK [G30R],2.41
20,MQVTWGNVTVTFSNPEEAKKYAEKVARKLSGQVELHNGQFRIK [G30S],1.98
21,MQVTWGNVTVTFSNPEEAKKYAEKVARKLTGQVELHNGQFRIK [G30T],1.34
22,MQVTWGNVTVTFSNPEEAKKYAEKVARKLVGQVELHNGQFRIK [G30V],1.45
23,MQVTWGNVTVTFSNPEEAKKYAEKVARKLWGQVELHNGQFRIK [G30W],1.74
24,MQVTWGNVTVTFSNPEEAKKYAEKVARKLYGQVELHNGQFRIK [G30Y],1.81

row,Variant,folding stability dG [kcal/mol]
1,MQVTWGNVTVTFSNPEEAKKYAEKVARKLGAQVELHNGQFRIK [G31A],2.62
2,MQVTWGNVTVTFSNPEEAKKYAEKVARKLGCQVELHNGQFRIK [G31C],2.79
3,MQVTWGNVTVTFSNPEEAKKYAEKVARKLGDQVELHNGQFRIK [G31D],1.05
4,MQVTWGNVTVTFSNPEEAKKYAEKVARKLGEQVELHNGQFRIK [G31E],1.46
5,MQVTWGNVTVTFSNPEEAKKYAEKVARKLGFQVELHNGQFRIK [G31F],2.21
6,MQVTWGNVTVTFSNPEEAKKYAEKVARKLGHQVELHNGQFRIK [G31H],2.11
7,MQVTWGNVTVTFSNPEEAKKYAEKVARKLGIQVELHNGQFRIK [G31I],2.01
8,MQVTWGNVTVTFSNPEEAKKYAEKVARKLGKQVELHNGQFRIK [G31K],1.8
9,MQVTWGNVTVTFSNPEEAKKYAEKVARKLGLQVELHNGQFRIK [G31L],2.6
10,MQVTWGNVTVTFSNPEEAKKYAEKVARKLGMQVELHNGQFRIK [G31M],2.53
11,MQVTWGNVTVTFSNPEEAKKYAEKVARKLGNQVELHNGQFRIK [G31N],1.06
12,MQVTWGNVTVTFSNPEEAKKYAEKVARKLGPQVELHNGQFRIK [G31P],0.55
13,MQVTWGNVTVTFSNPEEAKKYAEKVARKLGQQVELHNGQFRIK [G31Q],1.87
14,MQVTWGNVTVTFSNPEEAKKYAEKVARKLGRQVELHNGQFRIK [G31R],1.8
15,MQVTWGNVTVTFSNPEEAKKYAEKVARKLGSQVELHNGQFRIK [G31S],2.19
16,MQVTWGNVTVTFSNPEEAKKYAEKVARKLGTQVELHNGQFRIK [G31T],2.03
17,MQVTWGNVTVTFSNPEEAKKYAEKVARKLGVQVELHNGQFRIK [G31V],2.27
18,MQVTWGNVTVTFSNPEEAKKYAEKVARKLGWQVELHNGQFRIK [G31W],2.39
19,MQVTWGNVTVTFSNPEEAKKYAEKVARKLGYQVELHNGQFRIK [G31Y],2.04
20,MQVTWGNVTVTFSNPEEAKKYAEKVARKLGGAVELHNGQFRIK [Q32A],2.52
21,MQVTWGNVTVTFSNPEEAKKYAEKVARKLGGCVELHNGQFRIK [Q32C],3.47
22,MQVTWGNVTVTFSNPEEAKKYAEKVARKLGGDVELHNGQFRIK [Q32D],2.11
